Values quoted from earlier work, collected in publication PMC8671138.

Molecular target: CD47 (Homo sapiens) (UniProt Q08722)
UniProt Q08722, sequence (Q08722 19-323): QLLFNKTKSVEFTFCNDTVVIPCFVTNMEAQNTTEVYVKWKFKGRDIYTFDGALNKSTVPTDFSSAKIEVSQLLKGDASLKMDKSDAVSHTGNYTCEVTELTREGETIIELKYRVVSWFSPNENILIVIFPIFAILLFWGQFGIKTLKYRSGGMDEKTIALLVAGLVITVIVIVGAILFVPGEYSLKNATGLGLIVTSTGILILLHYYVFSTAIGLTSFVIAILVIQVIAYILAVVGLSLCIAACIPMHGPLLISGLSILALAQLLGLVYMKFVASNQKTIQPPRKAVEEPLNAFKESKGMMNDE

For SIRPα (from UniProt P78324), the Kd is listed as 2 µM.
